Key:
alpha fetoprotein (AFP) = biological target: T1, alpha fetoprotein (AFP) (human, UniProt P02771 19-609); test: electrochemical sandwich aptasensor
T1 sequence: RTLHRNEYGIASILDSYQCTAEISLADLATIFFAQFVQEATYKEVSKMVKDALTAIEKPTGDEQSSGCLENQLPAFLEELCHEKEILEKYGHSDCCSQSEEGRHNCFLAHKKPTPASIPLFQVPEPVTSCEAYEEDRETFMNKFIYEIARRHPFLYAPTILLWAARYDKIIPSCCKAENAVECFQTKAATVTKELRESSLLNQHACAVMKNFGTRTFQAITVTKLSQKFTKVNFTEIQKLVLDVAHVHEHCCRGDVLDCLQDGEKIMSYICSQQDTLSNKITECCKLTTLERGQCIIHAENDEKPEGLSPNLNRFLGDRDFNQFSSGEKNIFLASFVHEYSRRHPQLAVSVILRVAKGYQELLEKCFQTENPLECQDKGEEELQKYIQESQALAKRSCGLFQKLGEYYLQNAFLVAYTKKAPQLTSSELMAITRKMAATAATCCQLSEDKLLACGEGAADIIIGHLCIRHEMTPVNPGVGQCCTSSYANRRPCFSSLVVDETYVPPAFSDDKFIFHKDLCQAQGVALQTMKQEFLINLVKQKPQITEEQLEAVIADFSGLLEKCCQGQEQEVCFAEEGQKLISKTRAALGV

C-reactive protein (CRP) = biological target: T2, C-reactive protein (CRP) (UniProt P02741 19-224); test: electrochemical sandwich aptasensor
T2 sequence: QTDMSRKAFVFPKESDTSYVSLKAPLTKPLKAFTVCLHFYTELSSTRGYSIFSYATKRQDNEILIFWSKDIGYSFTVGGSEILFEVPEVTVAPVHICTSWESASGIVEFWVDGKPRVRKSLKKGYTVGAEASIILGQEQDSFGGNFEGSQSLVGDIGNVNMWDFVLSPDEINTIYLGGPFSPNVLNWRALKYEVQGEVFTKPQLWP

Does GACATACCAGCTTATTCAATT (ssDNA, 5' HS-(CH2)6) [HS-GAC-P] bind (alpha fetoprotein (AFP))?
Result: no binding

Does GACATACCAGCTTATTCAATT (ssDNA, 5' HS-(CH2)6) [HS-GAC-P] bind (C-reactive protein (CRP))?
Result: no binding

Does ATACCAGCTTATTCAATTATG (ssDNA, 5' HS-(CH2)6) [HS-P-ATG] bind (alpha fetoprotein (AFP))?
Result: no binding

Does ATACCAGCTTATTCAATTATG (ssDNA, 5' HS-(CH2)6) [HS-P-ATG] bind (C-reactive protein (CRP))?
Result: no binding
